Experimental data as given in the supplement of paper PMC10057847, “Precision engineering of biological function with large-scale measurements and machine learning” (PLOS ONE, 2023).
± gives the uncertainty stated by the source.

B1: library; the commonest letter at each place (parent)
chain: MKPVTLYDVAEYAGVSYQTVSRVVNQASHVSAKTREKVEAAMAELNYIPNRVAQQLAGKQSLLIGVATSSLALHAPSQIVAAIKSRADQLGASVVVSMVERSGVEACKAAVHNLLAQRVSGLIINYPLDDQDAIAVEAACTNVPALFLDVSDQTPINSIIFSHEDGTRLGVEHLVALGHQQIALLAGPLSSVSARLRLAGWHKYLTRNQIQPIAEREGDWSAMSGFQQTMQMLNEGIVPTAMLVANDQMALGAMRAITESGLRVGADISVVGYDDTEDSSCYIPPLTTIKQDFRLLGQTSVDRLLQLSQGQAVKGNQLLPVSLVKRKTTLAPNTQTASPRALADSLMQLARQVSRLESGQ

Assays:
Details in all cases: with IPTG
IPTG [1] = variants of: B1
Procedure: (§1)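 LacI variants on the pVER plasmid regulate eYFP behind lacO in E. coli MG1655Δlac, grown in rich M9 at 37 °C with a 2-fold IPTG dilution series. After two 160-min growth steps, YFP is read by flow cytometry and calibrated to MEF. Bayesian MCMC fits of the Hill equation give G0, G∞, EC50 and n (posterior mean ± SD).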

IPTG [2] = variants of: B1; assay: Hill coefficient n (dimensionless); higher = steeper dose response
Procedure: as §1

IPTG [3] = variants of: B1; assay: basal output G0 (YFP, no IPTG) (log10 MEF); higher = higher reporter expression without inducer
Procedure: as §1

IPTG [4] = variants of: B1; assay: saturating output G-infinity (YFP) (log10 MEF); higher = higher reporter expression at saturating IPTG
Procedure: as §1

| Variant | EC50 for IPTG (log10 µmol/L) (IPTG [1]) | Hill coefficient n (IPTG [2]) | basal output G0 (log10) (IPTG [3]) | saturating output G-infinity (log10) (IPTG [4]) |
| --- | --- | --- | --- | --- |
| MKPVTLYDVAEYAGVSYQTVSRVVNQASHVSAKTREKVEAAMAELNYIPNRVAQQLAGKQSLLIGVATSSLALHAPSQIVAAIKSRADQLGASVVVSMVERSGVEACKAAVHNLLAQRVSGLIINYPLDDQDAIAVEAACTNVPALFLDVSDQTPINSIIFSHEDGTRLGVEHLVALGHQQIALLAGPLSSVSARLRLAGWHKYLTRNQIQPIAEREGDWSAMSGFQQTMQMLNEGIVPTAMLVANDQMALGAMRAITESGLRVGADISVMGYDDTEDSSCYIPPLTTIKQDFRLLGQTSVDRLLQLSQGQAVKGNQLLPVSLVKRKTTLAPNTQTASPRALADSLMQLARQVSRLESGQ [V271M] | 2.089 ± 0.0097 | 1.64 ± 0.034 | 2.19 ± 0.19 | 4.413 ± 0.0046 |
| MKPVTLYDVAEYAGVSYQTVSRVVNQASHVSAKTREKVEAAMAELNYIPNRVAQQLAGKQSLLIGVATSSLALHAPSQIVAAIKSRADQLGASVVVSMVERSGVEACKAAVHNLLAQRVSGLIINYPLDDQDAIAVEAACTNVPALFLDVSDQTPINSIIFSHEDGTRLGVEHLVALGHQQIALLAGPLSSVSARLRLAGWHKYLTRNQIQPIAEREGDWSAMSGFQQTMQMLNEGIVPTAMLVANDQMALGAMRAITESGLRVGADISVVGYDDTEDSSCYIPPLTTIKLDFRLLGQTSVDRLLQLSQGQAVKGNQLLPVSLVKRKTTLAPNTQTASPRALADSLMQLARQVSRLESGQ [Q291L] | 2.064 ± 0.017 | 1.61 ± 0.052 | 2.22 ± 0.21 | 4.407 ± 0.0075 |
| MKPVTLYDVAEYAGVSYQTVSRVLNQASHVSAKTREKVEAAMAELNYIPNRMAQQLAGKQSLLIGVATSSLTLHAPSQIVAAIKSRADQLGASVVVSMVERSGVEACKAAVHNLLAQRVSGLIINYPLDDQDAIAVEAACTNVPALFLDVSDQTPINSIIFSHEDGTRLGVEHLVALGHQQIALLAGPLSSVSARLRLAGWHKYLTRNQIQPIVEREGDWSAMSGFQQTMQMLNEGIVPTAMLVANDQMALGAMRAITESGLRVGADVSVVGYDDTEDSSCYIPPLTTIKQDFRLLGQTSVDRLLQLSQGQAVKGNQLLPVSLVQRKTTLAHNTQTVSPRALADSLMQLARQVSRLESGQ [V24L V52M A72T A214V I268V K325Q P332H A337V] | 1.467 ± 0.0061 | 1.59 ± 0.03 | 2.62 ± 0.054 | 4.2255 ± 0.002 |
| MKPVTLYDVAEYAGVSYQTVSRVVNQASHVSAKTREKVEAAMAELNYIPNRVAQQLAGKQSLLIGVATSSLVLHAPSQIVAAINSRADQLGASVVVSMVERSGVEACKAAVHNLLAQRVSGLIINYPLDDQDAIAVEAACTNVPALFLDVSDQTPINSIIFSHEDGTRLGVEHLVALGHQQIALLAGPLSSVSARLRLAGWHKYLTRNQFQPIAEREGDWSAMSGFQQTMQMLNEGIVPTAMLVANDQMALGATRAITESGLRVGADISVVGYDDTEDSSCYIPPLTTIKQDFRLLGQTSVDRLLQLSQGQAVKGNQLLPVSLVKRKTTLAPNTQSASPRALADSLMQLARQVSRLESGQ [A72V K84N I210F M254T T336S] | 0.962 ± 0.049 | 0.934 ± 0.078 | 4.369 ± 0.0082 | 4.067 ± 0.0058 |
| MKPVTLYDVAEYAGVSYQTVSRVVNQASHVSAKTREKVEAAMAELNYIPNRVAQQLAGKQSLLIGVATSSLALHAPSQIVAAIKSRADQLGASVVVSMVERSGVEACKAAVHNLLAQRVSGLIINYPLDDQDAIAVEAACTNVPALFLDVSDQTPINSIIFSHEDGTRLGVEHLVALGHQQIALLAGPLCSVSARLRLAGWHKYLTRNQIQPIAEREGDWSAMSGFQQTMQMLNEGIVPTAMLVANDQMALGAMRAITESGLRVGADISVVGYDDTEDSSCYIPPLTTIKQDFRLLGQTSVDRLLQLSQGQAVKGNQLLPVSLVKRKTTLAPNTQTASPRALADSLMQLARQVSRLESGQ [S190C] | 2.091 ± 0.0053 | 1.65 ± 0.019 | 2.31 ± 0.049 | 4.4474 ± 0.0025 |
